The text below walks through data of article PMC7646477.

The assay concerns the target rhCD39-ECD. Nature of the assay: BLI. To be noted: 30.0 °C.

With TTX-030, the Kd result (pH 6.5) is “approximately 1.5 nM” and the Kd result (pH 7.4) was “approximately 1.5 nM”.
